B1: Divalent-cation tolerance protein CutA, P69488 (parent)
chain: MLDEKSSNTASVVVLCTAPDEATAQDLAAKVLAEKLAACATLIPGATSLYYWEGKLEQEYEVQMILKTTVSHQQALLECLKSHHPYQTPELLVLPVTHGDTDYLSWLNASLR

Variants of: B1
Settings: Escherichia coli (strain K12), structure 3X3U, whole UniProt chain shown; for ddG of mutation (higher = less stable) / denaturant midpoint (higher = more stable): pH 8, 37 °C, GdnHCl, CD, Tris-HCl, reversible: yes; for Tm / change of melting temperature, mutant - wild type (higher = more stable): pH 9, Thermal, DSC, glycine Buffer, transition: 2, reversible: no

Row | Variant | ddG of mutation (higher = less stable) [kcal/mol] | denaturant midpoint (higher = more stable) [M] | Tm [°C] | change of melting temperature, mutant - wild type (higher = more stable) [°C]
1 | MLDEKSSNTASVVVLCTAPDEATAQDLAAKVLAEKLAACATLIPGATSLYYWEGKLEQKYEVQMILKTTVSHQQALLECLKSHHPYQTPELLVLPVTHGDTDYLSWLNASLR [E59K] | -3.92 | 3.01 | 104 | 14.3
2 | MLDEKSSNTASVVVLCTAPDEATAQDLAAKVLAEKLAACATLIPGATSLYYWEGKLEQLYEVQMILKTTVSHQQALLECLKSHHPYQTPELLVLPVTHGDTDYLSWLNASLR [E59L] | -2.89 | 2.96 | 100 | 10.3
3 | MLDEKSSNTAVVVVLCTAPDEATAQDLAAKVLAEKLAACATLIPGATSLYYWEGKLEQEYVVQMILKTTVSHVQALLECLKSHHPYQTPELLVLPVTHGDTDYLSWLNASLR [S11V E61V Q73V] | – | 4.67 | – | –
4 | MLDEKSSNTASVVVLCTAPDEATAQDLAAKVLAEKLAACATLIPGATSLYYWEGKLEQKYVVQMILKTTVSHQQALLECLKSHHPYQTPELLVLPVTHGDTDYLSWLNASLR [E59K E61V] | -5.47 | 3.24 | 104 | 14.4
5 | MLDEKSSNTAVVVVLCTAPDEATAQDLAAKVLAEKLAACATLIPGATSLYYWEGKLEQEYTVQMILKTTVSHQQALLECLKSHHPYQTPELLVLPVTHGDTDYLSWLNASLR [S11V E61T] | – | 3.48 | 112 | 22.4
6 | MLDEKSSNTAVVVVLCTAPDEATAQDLAAKVLAEKLAACATLIPGATSLYYWEGKLEQEYVVQMILKTTVSHQQALLECLKSHHPYQTPELLVLPVTHGDTDYLSWLNASLR [S11V E61V] | – | 3.8 | 114 | 23.6
7 | MLDEKSSNTAVVVVLCTAPDEATAQDLAAKVLAEKLAACATLIPGATSLYYWEGKLEQKYTVQMILKTTVSHQQALLECLKSHHPYQTPELLVLPVTHGDTDYLSWLNASLR [S11V E59K E61T] | – | 3.48 | – | –
8 | MLDEKSSNTASVVVLCTAPDEATAQDLAAKVLAEKLAACATLIPGATSLYYWEGKLEQEYVVQMILKTTVSHQQALLECLKSHHPYQTPELLVLPVTHGDTDYLSWLNASLR [E61V] | -3.42 | 3.29 | 103 | 13.5
9 | MLDEKSSNTASVVVLCTAPDEATAQDLAAKVLAEKLAACATLIPGATSLYYWEGKLEQEYTVQMILKTTVSHQQALLECLKSHHPYQTPELLVLPVTHGDTDYLSWLNASLR [E61T] | -3.15 | 2.99 | 98.6 | 8.7
10 | MLDEKSSNTAVVVVLCTAPDEATAQDLAAKVLAEKLAACATLIPGATSLYYWEGKLEQEYTVQMILKTTVSHVQALLECLKSHHPYQTPELLVLPVTHGDTDYLSWLNASLR [S11V E61T Q73V] | – | 4.2 | 114 | 23.7
11 | MLDEKSSNTASVVVLCTAPDEATAQDLAAKVLAEKLAACATLIPGATSLYYWEGKLEQEYEVQMILKTTVSHQQALLECLKSHHPDQTPELLVLPVTHGDTDYLSWLNASLR [Y86D] | 6.38 | 2.67 | 76.8 | -13.1
12 | MLDEKSSNTAVVVVLCTAPDEATAQDLAAKVLAEKLAACATLIPGATSLYYWEGKLEQEYEVQMILKTTVSHQQALLECLKSHHPYQTPELLVLPVTHGDTDYLSWLNASLR [S11V] | – | 3.31 | 105 | 15.1
13 | MLDEKSSNTASVVVLCTAPDEATAQDLAAKVLAEKLAACATLIPGATSLYYWEGKLEQEYEVQMILKTTVSHVQALLECLKSHHPYQTPELLVLPVTHGDTDYLSWLNASLR [Q73V] | – | 3.4 | 94 | 4.1
